Series [1] has as its system M160 (synthetic (shuffled viral Family A DNA polymerase)). The experiment in a line: EMSA. The note with it: 20 mM Tris pH 8.8, 10 mM NaCl, 5 mM MgCl2, 37 C; lacks 5' nuclease domain.
For series [2], the system named is M502 (synthetic (M160-nuc mutant W777C D781A D622N Q627N)). The experiment in a line: EMSA. The following applies: 20 mM Tris pH 8.8, 10 mM NaCl, 5 mM MgCl2, 37 C; at assay sensitivity limit.
Series [3] deals with M160-nuc (synthetic (shuffled viral polymerase fused to Taq 5'-3' nuclease domain)). The series is described as follows: EMSA. The following applies: 20 mM Tris pH 8.8, 10 mM NaCl, 5 mM MgCl2, 37 C. A general note: Mobility shift assays separate free from complexed probe on a gel.
For series [4], the system named is M402 (synthetic (M160-nuc with G46D and 3'-5' exo reactivated)). The following applies: vs M160-nuc.
Series [5] concerns M160-nuc (synthetic (shuffled viral polymerase fused to Taq 5'-3' nuclease domain)). The note with it: reference.
In series [6] the test system is M401 (synthetic (M160-nuc A339E)). The note with it: vs M160-nuc.
For series [7], the system named is M403 (synthetic (M160-nuc, both nucleases inactive)). The following applies: vs M160-nuc.
For series [8], the system named is M402 (synthetic (M160-nuc with G46D and 3'-5' exo reactivated)). The experiment in a line: cleavage_in_vitro. The note with it: relative to Pfu polymerase, 37 C, 4 mM MgCl2.
In series [9] the test system is M401 (synthetic (M160-nuc A339E)). The series is described as follows: cleavage_in_vitro. The note with it: relative to Pfu polymerase, 37 C, 4 mM MgCl2.
The mark [10] stands for this setting: 50 C, substrate taken from general RT assay.
The mark [11] stands for this setting: substrate taken from general polymerase assay.

Where only a bound is given, the exact number is not on record here.

M402 (synthetic (M160-nuc with G46D and 3'-5' exo reactivated)), sequence (chain, as listed by the source G46D): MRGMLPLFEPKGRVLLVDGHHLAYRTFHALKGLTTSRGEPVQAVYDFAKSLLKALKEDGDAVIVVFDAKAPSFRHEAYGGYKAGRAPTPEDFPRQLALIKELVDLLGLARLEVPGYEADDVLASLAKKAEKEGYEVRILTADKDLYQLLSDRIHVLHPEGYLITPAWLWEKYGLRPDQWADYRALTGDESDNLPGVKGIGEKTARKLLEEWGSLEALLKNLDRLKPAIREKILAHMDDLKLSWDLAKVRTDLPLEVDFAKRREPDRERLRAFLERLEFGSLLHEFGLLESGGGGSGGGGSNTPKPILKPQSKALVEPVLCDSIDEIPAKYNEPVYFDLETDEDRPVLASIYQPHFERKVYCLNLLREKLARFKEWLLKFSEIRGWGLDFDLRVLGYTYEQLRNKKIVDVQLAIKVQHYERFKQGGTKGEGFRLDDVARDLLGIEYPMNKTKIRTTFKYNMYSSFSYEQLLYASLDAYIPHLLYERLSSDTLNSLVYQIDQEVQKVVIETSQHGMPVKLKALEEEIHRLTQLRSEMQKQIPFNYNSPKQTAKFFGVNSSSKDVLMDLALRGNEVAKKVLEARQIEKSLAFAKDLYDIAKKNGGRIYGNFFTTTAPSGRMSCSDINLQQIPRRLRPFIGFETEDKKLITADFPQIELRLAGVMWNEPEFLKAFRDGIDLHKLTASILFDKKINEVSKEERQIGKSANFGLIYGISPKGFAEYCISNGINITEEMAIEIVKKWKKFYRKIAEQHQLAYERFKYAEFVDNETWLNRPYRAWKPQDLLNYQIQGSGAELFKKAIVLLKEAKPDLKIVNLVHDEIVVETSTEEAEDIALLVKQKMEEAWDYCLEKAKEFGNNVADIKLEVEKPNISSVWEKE
M401 (synthetic (M160-nuc A339E)), sequence (chain, as listed by the source A339E): as the sequence (chain, as listed by the source G46D) above, with D46G counted along it
M403 (synthetic (M160-nuc, both nucleases inactive)), sequence (chain, as listed by the source): as the sequence (chain, as listed by the source G46D) above, with E339A counted along it
M502 (synthetic (M160-nuc mutant W777C D781A D622N Q627N)), sequence (chain, as listed by the source W777C D781A D622N Q627N): as the sequence (chain, as listed by the source G46D) above, with D46G, E339A, D622N, Q627N, W777C, D781A counted along it

Regarding “primed-template DNA (Yamagami et al. 2014)”, the Kd (as a rule, the constant that tells how readily two partners part at equilibrium) in [1] is 946 nM; in [2], under 6.1 nM; in series [3] it was 78.9 nM.

poly(A)/oligo(dT)20: the relative enzyme activity (relative RT activity) in [4] (setting [10]) was determined as 0.98; in series [5] (50 C), 1; in series [6] (setting [10]), 1.02; in series [7] (setting [10]) it was 1.03.

Take 59-mer single-stranded oligonucleotide: the values for the relative enzyme activity (relative ssExo activity) in series [8] and in [9] were 0.89 and 0.76, respectively.

For the substance primed M13mp18 DNA, the relative enzyme activity (relative pol activity) in [4] (setting [11]) is 1.05; in [5] (setting [11]) it was 1; in series [6] (setting [11]) it was 0.91; in series [7] (setting [11]), 0.72.

(Values after patent US20210171580.)
